{"source": "patent US11680267B2", "about": "“Co-regulatory sequences based on tetracycline and Cumate” (Shenzhen Eureka Biotechnology Co., Ltd., priority 2020, dated 2023)", "molecules": {"B1": {"name": "TREadvCuO: Tet-On (7xTetO of TREadv) and Cumate complex response element, CuO 52 bp behind the TATA box (SEQ ID NO: 30) (nucleic acid)", "DNA": "TCCCTATCAGTGATAGAGAACGTATGTCGAGTTTACTCCCTATCAGTGATAGAGAACGATGTCGAGTTTACTCCCTATCAGTGATAGAGAACGTATGTCGAGTTTACTCCCTATCAGTGATAGAGAACGTATGTCGAGTTTACTCCCTATCAGTGATAGAGAACGTATGTCGAGTTTATCCCTATCAGTGATAGAGAACGTATGTCGAGTTTACTCCCTATCAGTGATAGAGAACGTATGTCGAGGTAGGCGTGTACGGTGGGAGGCCTATATAAGCAACCGGTGTTTAGTGAACCGTCAGATCGCCTGGAGACGCCATCATAATACAAACAGACCAGATTGTCTGTTTGTT", "modifications": "TREadvCuO52 response element sequence"}, "B2": {"name": "TREadvCuO32: Tet-On (TREadv) and Cumate complex response element, CuO 32 bp behind the TATA box (SEQ ID NO: 29) (nucleic acid)", "DNA": "TCCCTATCAGTGATAGAGAACGTATGTCGAGTTTACTCCCTATCAGTGATAGAGAACGATGTCGAGTTTACTCCCTATCAGTGATAGAGAACGTATGTCGAGTTTACTCCCTATCAGTGATAGAGAACGTATGTCGAGTTTACTCCCTATCAGTGATAGAGAACGTATGTCGAGTTTATCCCTATCAGTGATAGAGAACGTATGTCGAGTTTACTCCCTATCAGTGATAGAGAACGTATGTCGAGGTAGGCGTGTACGGTGGGAGGCCTATATAAGCAACCGGTGTTTAGTGAACCGTCAGATCTACAAACAGACCAGATTGTCTGTTTGTT", "modifications": "TREadvCuO32 response element sequence"}, "B3": {"name": "TRE3GCuO30: Tet-On (TRE3G) and Cumate complex response element, CuO 30 bp behind the TATA box (SEQ ID NO: 28) (nucleic acid)", "DNA": "TCCCTATCAGTGATAGAGAACGTATGAAGAGTTTACTCCCTATCAGTGATAGAGAACGTATGCAGACTTTACTCCCTATCAGTGATAGAGAACGTATAAGGAGTTTACTCCCTATCAGTGATAGAGAACGTATGACCAGTTTACTCCCTATCAGTGATAGAGAACGTATCTACAGTTTACTCCCTATCAGTGATAGAGAACGTATATCCAGTTTACTCCCTATCAGTGATAGAGAACGTATTAGGCGTGTACGGTGGGCGCCTATAAAAGCAGAGCTCGTTTAGTGAACCGTCAGATACAAACAGACCAGATTGTCTGTTTGTT", "modifications": "TRE3GCuO30 response element sequence"}}, "assay_type_in_all_cases": "cell-based", "key": {"293T-rtTAadv-CymR cells": {"test_system": "293T-rtTAadv-CymR cells", "test": "Luciferase assay, transient transfection, DOX and Cumate vs no inducer (Example 3), rtTAadv cells", "protocol": "(§1) 293T cells were seeded at 1.5E+06 cells per 60 mm culture dish, and cultured in DMEM (Sigam, D6429) complete medium supplemented with 10% FBS (ExCell, 11H116) at 37° C. and 5% CO 2. After 24 hours of culture, transfection was carried out according to the PEI method. During transfection, 500 μL of transfection reagent which contained 5.5 ug of total plasmid was added to each 60 mm culture dish, and the mass ratio of total plasmid to PEI MAX (Polysciences, 24765-1) was 1:4. The transfection was carried out according to the PEI method, wherein the amount of total plasmid was 5.5 μg. The transfection was performed with plasmids 19BF074:18BF019 at a molar ratio of 10:1 to obtain 293T-rtTAadv-CymR cells; and the transfection was performed with plasmids 19BF075:18BF019 at a molar ratio of 10:1 to obtain 293T-rtTA3G-CymR cells. The plasmid and PEI MAX were mixed uniformly, and then put into a culture dish after standing for 15 minutes. 3 hours after transfection, the medium was changed to a complete DMEM medium, and the transfection operation was completed. After 24 hours of transfection, the cells were digested with trypsin and all seeded in a 100 mm culture dish (Corning, 430167), and 200 μg/ml of hygromycin (Sangon Biotech A600230-0001) drug screening was performed for at least three passages. After the growth of cells under the pressure of drug screening was consistent with that of the original 293T cells, the following experiments were performed.\n(§2) In Tet-On inducible expression system, the induced transcription activity and the leaky transcription activity were comprehensively affected by the TetO operator linking sequence of the TRE response element and the minimal promoter sequence, as well as different mutants of the transactivator rtTA. In addition, the transport and stability of messenger ribonucleic acid may be enhanced by linking a spliceable intron sequence downstream of the 3′ end of the response element and upstream of the 5′ end of the regulated nucleic acid fragment of interest, but the induced transcription activity and leaky transcription activity of response element of the inducible expression system may also be affected. Based on this, the optimal design scheme of complex response element was determined in this Example based on the induced expression level and the ratio of induced/leaky expression level of Luciferase gene under the combination of the following conditions: (1) Tet-On and Cumate complex response elements TREadvCuO and TRE3GCuO designed based on the TREadv and TRE3G response element sequences; (2) whether an intron was linked; (3) being regulated by the transactivator rtTAadv or rtTA3G. A total of 8 design schemes were compared in this Example: TREadv (18BF232), TREadvCuO (18BF233), TRE3G (18BF234), TRE3GCuO (18BF235), TREadv-BGI (18BF240, wherein the response element was TREadv, and a human β-globulin intron was linked between the 3′ end of the response element and the 5′ end of the Luciferase gene), TREadvCuO-BGI (18BF241, wherein the response element was TREadvCuO, and a human β-globulin intron was linked between the 3′ end of the response element and the 5′ end of the Luciferase gene), TRE3G-BGI (18BF236, wherein the response element was TRE3G, and a human β-globulin intron was linked between the 3′ end of the response element and the 5′ end of the Luciferase gene) and TRE3GCuO-BGI (18BF237, wherein the response element was TRE3GCuO, and a human β-globulin intron was linked between the 3′ end of the response element and the 5′ end of the Luciferase gene). The promoter CMV-BGI (18BF229, wherein the promoter was CMV, and a human β-globulin intron was linked between the 3′ end of the CMV promoter and the 5′ end of the Luciferase gene) was used as a positive control. […]"}, "293T-rtTA3G-CymR cells [1]": {"test_system": "293T-rtTA3G-CymR cells", "test": "Luciferase fluorescence intensity assay, transient transfection, both DOX and Cumate vs DOX alone (Example 2)", "details": "for induced expression level: transient transfection, 24 hours after transfection", "from_the_text": "The experiment described in the present Example is to study and verify the effect of the position and copy number of the CuO operator in the Tet-On and Cumate complex response element on the induced expression level and non-induced leaky expression level of the complex response element, and to optimize and confirm the optimal position and copy number of the CuO operator. In the present Example, based on the 7×TetO sequence in the TRE3G response element and the minimal promoter sequence #1 (SEQ ID NO: 25), the response elements TRE3GCuO14 (10-317 bp in SEQ ID NO: 8), TRE3GCuO30 (SEQ ID NO: 28), TRE3GCuO50 (SEQ ID NO: 23) and TRE3GCuO100 (10-403 bp in SEQ ID NO: 10) were designed by linking a CuO operator sequence at 10 bp to 100 bp downstream of the TATA box (at 14 bp, 30 bp, 50 bp and 100 bp downstream of the TATA box, respectively), and a Luciferase reporter gene sequence was linked downstream of the 3′ end of the above response elements, to construct plasmids 18BF251, 18BF252, 18BF235 and 18BF253. Further, in order to study the effect of multiple copies of CuO operators, 2, 4 and 6 copies of CuO operator sequences were respectively inserted at 50 bp downstream of the TATA box, to design the response elements TRE3GCuO2x (10-411 bp in SEQ ID NO: 11), TRE3GCuO4x (10-527 bp in SEQ ID NO: 12) and TRE3GCuO6x (10-643 bp in SEQ ID NO: 13), and then a Luciferase reporter gene sequence was linked downstream of 3′ end of the above response elements to construct plasmids 18BF254, 18BF255 and 18BF256. In 293T-rtTA3G-CymR cells stably expressing rtTA3G and CymR genes, the above plasmids were transiently transfected, and the optimal position and number of CuO operator were validated by measuring the luciferase […] value of samples added with both DOX and Cumate inducers and that of the control added with the DOX inducer only. The specific experimental methods were as follows:\nas §1\nThe 293T-rtTA3G-CymR cells were seeded in a 96-well plate (Corning 3916) at 2.5E+04 cells per well, and the medium was 100 microliters of DMEM complete medium. […]"}, "293T-rtTA3G-CymR cells [2]": {"test_system": "293T-rtTA3G-CymR cells", "test": "Luciferase assay, transient transfection, DOX and Cumate vs no inducer (Example 3), rtTA3G cells", "details": "293T-rtTA3G-CymR cells", "protocol": "as §1, §2"}, "293T-rtTA3G-CymR cells [3]": {"test_system": "293T-rtTA3G-CymR cells", "test": "Luciferase fluorescence intensity assay, transient transfection, both DOX and Cumate vs DOX alone (Example 2)", "details": "for induced expression level as % of the induced expression level for TREadv response element: 1 ug/ml DOX and 200 ug/ml Cumate; for ratio of induced/leaky expression level based on Cumate inducible expression system, relative to that for the TREadv response element: DOX and Cumate vs DOX only"}, "[4]": {"details": "1 ug/ml DOX and 200 ug/ml Cumate"}}, "data": [{"molecule": "B1", "values": [{"measurement": "induced expression level as % of that of the corresponding TRE3G or TREadv single regulatory response element", "setting": "293T-rtTAadv-CymR cells; DOX and Cumate", "value": 36.3, "unit": "%"}, {"measurement": "induced/leaky expression ratio", "setting": "293T-rtTAadv-CymR cells; DOX and Cumate vs no inducer", "value": 1345, "unit": "times"}, {"measurement": "induced expression level", "setting": "293T-rtTA3G-CymR cells [1]; [4]", "value": "4.88E+06", "unit": "RLU"}, {"measurement": "induced expression level as % of that of the single regulatory response element", "setting": "293T-rtTA3G-CymR cells [2]; DOX and Cumate", "value": 40.3, "unit": "%"}, {"measurement": "induced/leaky expression ratio", "setting": "293T-rtTA3G-CymR cells [2]; DOX and Cumate vs no inducer", "value": 1915, "unit": "times"}, {"measurement": "induced expression level as % of the induced expression level for TREadv response element", "setting": "293T-rtTA3G-CymR cells [3]", "value": 53.4, "unit": "%"}, {"measurement": "ratio of induced/leaky expression level based on Cumate inducible expression system, relative to that for the TREadv response element", "setting": "293T-rtTA3G-CymR cells [3]", "value": 3.23, "unit": "times"}]}, {"molecule": "B2", "values": [{"measurement": "induced expression level", "setting": "293T-rtTA3G-CymR cells [1]; [4]", "value": "3.26+06 RLU"}, {"measurement": "induced expression level as % of the induced expression level for TREadv response element", "setting": "293T-rtTA3G-CymR cells [3]", "value": 37.8, "unit": "%"}, {"measurement": "ratio of induced/leaky expression level based on Cumate inducible expression system, relative to that for the TREadv response element", "setting": "293T-rtTA3G-CymR cells [3]", "value": 4.97, "unit": "times"}]}, {"molecule": "B3", "values": [{"measurement": "induced expression level as % of the induced expression level of TRE3G response element", "setting": "293T-rtTA3G-CymR cells [1]; [4]", "value": 44.5, "unit": "%"}, {"measurement": "ratio of induced/leaky expression level based on Cumate inducible expression system, relative to that of TRE3G response element", "setting": "293T-rtTA3G-CymR cells [1]; DOX and Cumate vs DOX only", "value": 4.21, "unit": "times"}, {"measurement": "induced expression level", "setting": "293T-rtTA3G-CymR cells [1]; [4]", "value": "3.06E+06", "unit": "RLU"}]}]}
